Test results reported in the Immune Epitope Database (IEDB).

Assays:
HLA-B*18:01 = experiment: IEDB peptide-MHC binding, purified MHC/competitive/radioactivity; filed as Kd, often an IC50 or EC50 that approximates it; ≥ and ≤ were set here for values at or beyond the usual limits of such assays
HLA-B*40:01 [1] = experiment: as above
HLA-B*40:02 = experiment: as above
HLA-B*44:02 [2] = experiment: as above
HLA-B*44:03 = experiment: as above
HLA-B*45:01 = experiment: as above
HLA-A*68:02 = experiment: as above
HLA-A*30:01 = experiment: as above; conditions: source organism: Dengue virus 3 Martinique/1243/1999
HLA-A*26:01 [3] = experiment: as above; conditions: source organism: Dengue virus 2 Jamaica/1409/1983
HLA-A*01:01 = experiment: IEDB peptide-MHC binding, purified MHC/direct/fluorescence; filed as Kd, often an IC50 or EC50 that approximates it; ≥ and ≤ were set here for values at or beyond the usual limits of such assays
HLA-A*02:01 [4] = experiment: as above
HLA-A*03:01 = experiment: as above
HLA-A*11:01 = experiment: as above
HLA-A*26:01 [5] = experiment: as above
HLA-A*31:01 = experiment: as above
HLA-A*69:01 = experiment: as above
HLA-B*07:02 = experiment: as above
HLA-B*08:01 = experiment: as above
HLA-B*27:05 = experiment: as above
HLA-B*40:01 [6] = experiment: as above
HLA-B*44:02 [7] = experiment: as above
HLA-B*58:01 = experiment: as above
HLA-A*02:01 [8] = experiment: IEDB peptide-MHC binding, purified MHC/competitive/radioactivity; filed as Kd, often an IC50 or EC50 that approximates it; ≥ and ≤ were set here for values at or beyond the usual limits of such assays; conditions: source organism: Trypanosoma cruzi
HLA-A*02:02 = experiment: as above; conditions: source organism: Trypanosoma cruzi
HLA-A*02:03 = experiment: as above; conditions: source organism: Trypanosoma cruzi
HLA-A*02:06 = experiment: as above
HLA-A*24:03 = experiment: IEDB peptide-MHC binding, purified MHC/direct/fluorescence; filed as Kd, often an IC50 or EC50 that approximates it; ≥ and ≤ were set here for values at or beyond the usual limits of such assays; conditions: source organism: Vibrio vulnificus
HLA-B*15:01 = experiment: as above; conditions: source organism: Vibrio vulnificus
[9] = source organism: SARS coronavirus Tor2
[10] = source organism: Lymphocytic choriomeningitis virus (strain WE)
[11] = source organism: Shigella dysenteriae
[12] = source organism: Mammarenavirus guanaritoense
[13] = source organism: Trypanosoma cruzi
[14] = source organism: Mammarenavirus brazilense
[15] = source organism: Vibrio vulnificus
[16] = source organism: Lassa virus Josiah
[17] = source organism: Mammarenavirus mopeiaense
[18] = source organism: Dengue virus 4 Philippines/H241/1956

Sequence YDYYRYNLPT has a Kd (HLA-B*18:01; [9]) of at least 70.5 µM, a Kd (HLA-B*40:01 [1]; [9]) of at least 69.6 µM and a Kd (HLA-B*40:02; [9]) of at least 36.5 µM. For the same sequence, the Kd (HLA-B*44:02 [2]; [9]) was at least 24.8 µM, the Kd (HLA-B*44:03; [9]) was at least 20.9 µM and the Kd (HLA-B*45:01; [9]) was 15.1 µM.

KEPVESCPL gave a Kd (HLA-B*18:01; [10]) of at least 77.5 µM, a Kd (HLA-B*40:01 [1]; [10]) of 1.92 µM and a Kd (HLA-B*40:02; [10]) of 0.155 µM. For the same sequence, the Kd (HLA-B*44:02 [2]; [10]) was at least 77.9 µM, the Kd (HLA-B*44:03; [10]) was at least 78.1 µM and the Kd (HLA-B*45:01; [10]) was at least 58.4 µM.

MAVGIVSILL was tested, and the Kd (HLA-A*68:02; source organism: Dengue virus 1 Singapore/S275/1990) was 0.00558 µM.

MVHQIFGSA showed a Kd (HLA-A*30:01) of 0.0296 µM and a Kd (HLA-A*68:02; source organism: Dengue virus 3 Martinique/1243/1999) of 0.0167 µM.

With ETACLGKSYA the Kd (HLA-A*26:01 [3]) was 0.163 µM and the Kd (HLA-A*68:02; source organism: Dengue virus 2 Jamaica/1409/1983) was 0.00748 µM.

With AEMRETHWL the Kd (HLA-A*01:01; [11]) was at least 20 µM, the Kd (HLA-A*02:01 [4]; [11]) was at least 20 µM and the Kd (HLA-A*03:01; [11]) was at least 20 µM. The Kd (HLA-A*11:01; [11]) was at least 20 µM, the Kd (HLA-A*26:01 [5]; [11]) was at least 20 µM and the Kd (HLA-A*31:01; [11]) was at least 20 µM. The Kd (HLA-A*69:01; [11]) was at least 20 µM, the Kd (HLA-B*07:02; [11]) was at least 20 µM and the Kd (HLA-B*08:01; [11]) was at least 20 µM. For the same sequence, the Kd (HLA-B*27:05; [11]) was at least 20 µM, the Kd (HLA-B*40:01 [6]; source organism: Escherichia coli) was 0.00621 µM and the Kd (HLA-B*44:02 [7]; [11]) was 2 µM. It also gave a Kd (HLA-B*58:01; [11]) of at least 20 µM.

PDFELLLSL was tested, and the Kd (HLA-B*18:01; [12]) was 0.701 µM, the Kd (HLA-B*40:01 [1]; [12]) was 14.6 µM and the Kd (HLA-B*40:02; [12]) was 0.00218 µM. The Kd (HLA-B*44:02 [2]; [12]) was 7.83 µM, the Kd (HLA-B*44:03; [12]) was at least 35.8 µM and the Kd (HLA-B*45:01; [12]) was at least 38.1 µM.

In the case of LLGLWGLAAL, the Kd (HLA-A*02:01 [8]) is reported as 0.0507 µM, the Kd (HLA-A*02:02) is reported as 0.004 µM and the Kd (HLA-A*02:03) is reported as 0.00938 µM. For the same sequence, the Kd (HLA-A*02:06; [13]) was 0.144 µM and the Kd (HLA-A*68:02; [13]) was 5.82 µM.

Work on FANHAFTLV yielded a Kd (HLA-A*02:01 [8]) of 0.0687 µM, a Kd (HLA-A*02:02) of 0.0327 µM and a Kd (HLA-A*02:03) of 0.000226 µM. The Kd (HLA-A*02:06; [13]) was 0.0012 µM and the Kd (HLA-A*68:02; [13]) was 0.0232 µM.

For EEAALCTFLL, the Kd (HLA-B*18:01; [9]) was 0.163 µM, the Kd (HLA-B*40:01 [1]; [9]) was 0.0437 µM and the Kd (HLA-B*40:02; [9]) was 0.0177 µM. The Kd (HLA-B*44:02 [2]; [9]) was 0.0216 µM, the Kd (HLA-B*44:03; [9]) was 0.0131 µM and the Kd (HLA-B*45:01; [9]) was 0.089 µM.

For SDHLLSEML, the Kd (HLA-B*18:01; [14]) was at least 77.5 µM, the Kd (HLA-B*40:01 [1]; [14]) was 5.29 µM and the Kd (HLA-B*40:02; [14]) was 2.26 µM. For the same sequence, the Kd (HLA-B*44:02 [2]; [14]) was at least 26.9 µM, the Kd (HLA-B*44:03; [14]) was at least 78.1 µM and the Kd (HLA-B*45:01; [14]) was at least 77.7 µM.

Work on GSEVPGFCH yielded a Kd (HLA-A*01:01; [15]) of at least 20 µM, a Kd (HLA-A*02:01 [4]; [15]) of at least 20 µM and a Kd (HLA-A*03:01; [15]) of at least 20 µM. For the same sequence, the Kd (HLA-A*11:01; [15]) was at least 20 µM, the Kd (HLA-A*24:03) was at least 20 µM and the Kd (HLA-A*26:01 [5]; [15]) was at least 20 µM. For the same sequence, the Kd (HLA-A*31:01; [15]) was at least 20 µM, the Kd (HLA-A*69:01; [15]) was at least 20 µM and the Kd (HLA-B*07:02; [15]) was at least 20 µM. It also gave a Kd (HLA-B*08:01; [15]) of at least 20 µM, a Kd (HLA-B*15:01) of at least 20 µM and a Kd (HLA-B*27:05; [15]) of at least 20 µM. For the same sequence, the Kd (HLA-B*40:01 [6]; [15]) was at least 20 µM, the Kd (HLA-B*44:02 [7]; [15]) was at least 20 µM and the Kd (HLA-B*58:01; [15]) was at least 20 µM.

AELLNNQFGT was tested, and the Kd (HLA-B*18:01; [16]) was at least 70.4 µM, the Kd (HLA-B*40:01 [1]; [16]) was 2.32 µM and the Kd (HLA-B*40:02; [16]) was 1.12 µM. The Kd (HLA-B*44:02 [2]; [16]) was 3.24 µM, the Kd (HLA-B*44:03; [16]) was 16.6 µM and the Kd (HLA-B*45:01; [16]) was 11.4 µM.

VEFLKDAWEI gave a Kd (HLA-B*18:01; [9]) of 3.72 µM, a Kd (HLA-B*40:01 [1]; [9]) of 0.965 µM and a Kd (HLA-B*40:02; [9]) of 0.0774 µM. The Kd (HLA-B*44:02 [2]; [9]) was 0.641 µM, the Kd (HLA-B*44:03; [9]) was 0.614 µM and the Kd (HLA-B*45:01; [9]) was 4 µM.

Sequence PELLNNQFGT has a Kd (HLA-B*18:01; [17]) of 16.2 µM, a Kd (HLA-B*40:01 [1]; [17]) of at least 69.5 µM and a Kd (HLA-B*40:02; [17]) of at least 27.2 µM. For the same sequence, the Kd (HLA-B*44:02 [2]; [17]) was at least 70.2 µM, the Kd (HLA-B*44:03; [17]) was at least 69.7 µM and the Kd (HLA-B*45:01; [17]) was at least 70 µM.

Sequence LSMGLIAIAV has a Kd (HLA-A*02:06; [18]) of 0.00523 µM and a Kd (HLA-A*68:02; [18]) of 0.588 µM.
